Measurements from patent US20200138870A1, “RECREATION OF PANCREATIC NICHE ALLOWS FOR NOVEL METHODS FOR HUMAN, MATURE BETA DERIVATION FROM PLURIPOTENT STEM CELLS” (Baylor College of Medicine, priority 2016, published 2020).

How the values were obtained:
Assay type in all cases: cell-based, human
hESC-derived EPs [1] = assay: qPCR-based gene expression analysis of WNT5A-treated EPs
Protocol: Total RNA was isolated using TRIzol (Thermo Fisher Scientific) according to the manufacturer's protocol. DNAase (Qiagen) treatment was performed to remove genomic DNA. cDNA was synthesized using iScript (Biorad) by using […] of RNA. For qPCR, KAPA SYBR FAST (Kapa Biosystems) and Connect CFX light cycler (Biorad) for PCR reaction (<40 cycles were used). Primers were designed using qPrimerDepot in such way that the PCR product spans across exons junction. Primer specificity was checked using CFX manager software v3.1 […] and PCR product electrophoresis. Threshold data were analyzed by CFX manager software v3.1 using Comparative Ct relative quantitation method with TBP as internal control.

Smad = assay: Dual-pathway multicolor luciferase assay, Smad reporter; details: 500 ng/ml WNT5A, at 36 and 48h
From the text: (§1) The dual-pathway luciferase reporter vector was generated using the GoldenBraid2.0 Assembly Platform (Sarrion-Perdigones et al., 2011; Sarrion-Perdigones et al., 2013). Briefly, transcriptional units comprising the promoter elements, the CDS of the corresponding luciferase and the bovine growth hormone terminator were first assembled, and then these were latter combined in successive rounds of assembly to build the multigenic vector used in this assay. For the multicolor luciferase assay, H1-derived EPs were first dissociated into 96-well plates using method previously described and incubated overnight to allow cell attachment. […] At the determined harvesting point, culture media was removed and wells were washed with PBS. […] 10 μL of LARII reagent was added with the built-in injectors and after 2 seconds, the total light and the BP filtered light emitted by the FLuc and RedF mixture were measured for 1 second. Finally, 15 μL of Stop & Glo® reagent were injected and after 4 seconds the emitted light by Renilla luciferase was measured. The activity corresponding to FLuc and RedF that were simultaneously measured after the LARII reagent was added were calculated according to the method proposed by Nakayima et al (Nakajima et al., 2005) that is adjusted to this particular assay and explained in FIG. 7D.

hESC-derived EPs [2] = assay: Transwell migration and chemotaxis assay; details: 100, 500 ng/ml WNT5A in bottom well
Protocol: Transwell assays were performed using FluoroBlock Insert, […] pore size (Corning). The bottom 24 wells and the insert of transwell were coated with Geltrex to retained cells. At the experiment day, 1.5×10^5 hESC-derived EPs were seeded in each well at the transwell insert in B27 media with 10 μM Y-27632 and the well bottoms were replenished with either B27 media as control, B27 media+100 or 500 ng/ml WNT5A, or conditional media from Wk9.1, 17.5h and 20.1. After one week, the cell attached to the bottom wells were stained with Dapi and were counted.

JNK = assay: Western blot for phosphorylated JNK and total JNK; details: short-term (12h) treatment, 500 ng/ml WNT5A
Protocol: ISL1-EGFP hESCs were differentiated into EPs and first balanced with basal media (DMEM with 1% BSA and NEAA) for 6h and then treated with 500 ng/ml WNT5A in basal media. After 12h, cell lysates were collected as imilion of EPs were pelleted, PBS washed and resuspended in 250 μl of lysis buffer (10 mM HEPES pH7.5, 10 mM MgCl2, 5 mM KCl, 0.1 mM EDTA pH8, 0.1% TritonX-100, 0.2 mM PMSF, 1 mM DTT, 1 tab of Complete Protease Inhibitor Cocktail (Roche)). Cell lysates were centrifuged 12,000 g at 4° C. for 15 min and their supernatants were collected. BCA assay were performed using Pierce BCA protein assay kit (Thermo) to determine protein concentration. For Western blot, […] of protein were denatured with 4x Laemmeli buffer (40% glycerol, 8% SDS, 240 mM Tris-HCl pH6.8, 5% β-mercaptoethanol, 12.5 mM EDTA, 0.04% bromophenol blue) at 95° C. 3 min and resolved in 8% SDS-PAGE. PVDF membranes (BioRad) were used for transfer and membrane were blocked with 5% BSA in Tris-buffered saline with 1% Tween 20 (TBST) for 1h before applying primary antibody. Membranes were washed thrice for 10 min and anti-rabbit IgG-HRP (GE Life Science) were added for 3h at RT, followed by three washes. HyGLO™ Quick Spray Chemiluminescent HRP Antibody Detection Reagent (Denville Scientific Inc.) was used to detect antigen and the membrane was developed using CL-XPosure Film (Thermo Scientific). […]

3D-EPs = assay: WNT5A treatment in 3D SC-β cell differentiation protocol (Pagliuca et al., 2014); details: 4 days of treatment, compared to INS upregulation at 12-day in original protocol
Protocol: SC-β cells were generated using the protocol as previously described (Pagliuca et al., 2014). WNT5A were introduced into the differentiation from EP stage (EN in the original paper) together with T3, ALK5i in CMRL media for the first two days and then change into T3, ALK5i in CMRL media from the third day. Samples were collected at the 4th day and 12th day counting from EP stage and were fixed with 4% PFA and thrice washed with PBS for 10 min. For whole-mount staining, samples were first blocked with 5% donkey serum in PBST overnight and incubated with antibodies overnight as described above.

AP-1 = assay: Dual-pathway multicolor luciferase assay, AP-1 reporter; details: 500 ng/ml WNT5A, after 24h
From the text: as §1

B1: WNT5A: secreted growth factor from the human pancreatic niche (R&D), used at 100 or 500 ng/ml (protein)
chain: IIGAQPLCSQLAGLSQGQKKLCHLYQDHMQYIGEGAKTGIKECQYQFRHRRWNCSTVDNTSVFGRVMQIGSRETAFTYAVSAAGVVNAMSRACREGELSTCGCSRAARPKDLPRDWLWGGCGDNIDYGYRFAKEFVDARERERIHAKGSYESARILMNLHNNEAGRRTVYNLADVACKCHGVSGSCSLKTCWLQLADFRKVGDALKEKYDSAAAMRLNSRGKLVQVNSRFNSPTTQDLVYIDPSPDYCVRNESTGSLGTQGRLCNKTSEGMDGCELMCCGRGYDQFKTVQTERCHCKFHWCCYVKCKKCTEIVDQFVCK
For B1, the “GCG expression compared to untreated cells (in words)” value (hESC-derived EPs [1]; 5-day WNT5A-treated cells) was “decreased”, the “INS, CHGA, ONECUT1 and PCSK2 expression compared to untreated cells (in words)” value (hESC-derived EPs [1]; 5-day WNT5A-treated cells) was “increased” and the “BMP3, BMP4 and BMP6 expression by qPCR (in words)” value (hESC-derived EPs [1]; 5 day-WNT5A treatment) was “downregulation”. The “BMP inhibitor BMPER expression by qPCR (in words)” value (hESC-derived EPs [1]; 5 day-WNT5A treatment) was “upregulation”, the “Smad activity (in words)” value (Smad) was “decreases” and the “chemoattractant activity on EP migration (in words)” value (hESC-derived EPs [2]) was “does not act as a chemoattractant”. The “JNK expression and phosphorylation (in words)” value (JNK) was “increased”, the “number of INS+ cells in independent 3D protocol (in words)” value (3D-EPs) was “increasing the number of INS+ cells” and the “AP-1 activity (in words)” value (AP-1) was “activates”.
